# From US20240209076A1 (KODIAK SCIENCES, published 2024)
# Where a chain is given by its changes, count along the chain named. Numbers in names are those of the source.
# B1: anti-IL-6 antibody, heavy chain V48I, light chain WT (antibody, IgG1, V domains shown)
# VH: EVQLVESGGGLVQPGGSLRLSCAASGFTFSPFAMSWVRQAPGKGLEWIAKISPGGSWTYYSDTVTGRFTFSLDTSKSTAYLQMNSLRAEDTAVYYCARQLWGYYALDIWGQGTLVTVSS
# VL: DIQLTQSPSSLSASVGDRVTITCSASISVSYMYWYQQKPGKAPKLLIYDMSNLASGVPSRFSGSGSGTDFTLTISSLQPEDFATYYCMQWSGYPYTFGQGTKVEIK
# notes: Full IgG1 tested; V domains derived as in m2
# B2: anti-IL-6 antibody, heavy chain V48Q, light chain WT (antibody, IgG1, V domains shown)
# VH: B1 VH with I48Q
# VL: B1 VL
# notes: as for B1
# B3: anti-IL-6 antibody, heavy chain V64A, light chain WT (antibody, IgG1, V domains shown)
# VH: B1 VH with I48V, V64A
# VL: B1 VL
# notes: as for B1
# B4: anti-IL-6 antibody, heavy chain WT, light chain S24I (antibody, IgG1, V domains shown)
# VH: B1 VH with I48V
# VL: B1 VL with S24I
# notes: as for B1
# B5: anti-IL-6 antibody, heavy chain WT, light chain S24K (antibody, IgG1, V domains shown)
# VH: B1 VH with I48V
# VL: B1 VL with S24K
# notes: as for B1
# B6: anti-IL-6 antibody, heavy chain WT, light chain S24P (antibody, IgG1, V domains shown)
# VH: B1 VH with I48V
# VL: B1 VL with S24P
# notes: as for B1
# B7: anti-IL-6 antibody, heavy chain WT, light chain S24V (antibody, IgG1, V domains shown)
# VH: B1 VH with I48V
# VL: B1 VL with S24V
# notes: as for B1
# B8: anti-IL-6 antibody, heavy chain WT, light chain S26G (antibody, IgG1, V domains shown)
# VH: B1 VH with I48V
# VL: B1 VL with S26G
# notes: as for B1
# B9: anti-IL-6 antibody, heavy chain WT, light chain S26H (antibody, IgG1, V domains shown)
# VH: B1 VH with I48V
# VL: B1 VL with S26H
# notes: as for B1
# B10: anti-IL-6 antibody, heavy chain WT, light chain S26K (antibody, IgG1, V domains shown)
# VH: B1 VH with I48V
# VL: B1 VL with S26K
# notes: as for B1
# B11: anti-IL-6 antibody, heavy chain WT, light chain S28E (antibody, IgG1, V domains shown)
# VH: B1 VH with I48V
# VL: B1 VL with S28E
# notes: as for B1
# B12: anti-IL-6 antibody, heavy chain WT, light chain S28R (antibody, IgG1, V domains shown)
# VH: B1 VH with I48V
# VL: B1 VL with S28R
# notes: as for B1
# B13: anti-IL-6 antibody, heavy chain Y103D, light chain WT (antibody, IgG1, V domains shown)
# VH: B1 VH with I48V, Y103D
# VL: B1 VL
# notes: as for B1
# B14: anti-IL-6 antibody, heavy chain Y103E, light chain WT (antibody, IgG1, V domains shown)
# VH: B1 VH with I48V, Y103E
# VL: B1 VL
# notes: as for B1
# B15: anti-IL-6 antibody, heavy chain Y103S, light chain WT (antibody, IgG1, V domains shown)
# VH: B1 VH with I48V, Y103S
# VL: B1 VL
# notes: as for B1
# Molecular target: T1, recombinant human IL-6 (human, UniProt P05231 30-212)
# T1 construct: Flowed in solution over the captured antibodies
# T1 sequence (P05231 30-212 limits assumed): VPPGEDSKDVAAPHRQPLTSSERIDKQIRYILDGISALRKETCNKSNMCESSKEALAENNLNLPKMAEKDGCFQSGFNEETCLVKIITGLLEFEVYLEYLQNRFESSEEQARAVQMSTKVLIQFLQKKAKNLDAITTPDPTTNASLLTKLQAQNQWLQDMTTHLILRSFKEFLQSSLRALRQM
# Assay: SPR (Biacore), supernatant IgG on Protein A, 25 C
# Method: Antibodies were captured on a Protein A chip (GE) by injecting 1:20 dilution of cell supernatant at 10 μL/min for 60 seconds. […] The sensor chip was regenerated by a 60 seconds injection of 10 mM Glycine pH 1.7 at flow rate of 50 μL/min. […] For this setup, 1 μg/mL of purified antibody was injected over a Protein A chip at 10 μL/min for 25-28 seconds. Data analysis for supernatant and purified samples were performed using BIAevaluation software (GE). All sensorgrams were double reference subtracted and fit using a 1:1 Langmuir binding model.
Binder,Kd [nM],koff [s⁻¹],kon [M⁻¹ s⁻¹]
B1,0.346,0.000159,460000
B2,0.21,0.000138,654000
B3,0.402,0.000178,444000
B4,0.284,0.000135,476000
B5,0.424,0.000132,311000
B6,0.00551,2.67e-06,484000
B7,0.403,0.000137,340000
B8,0.281,0.000223,793000
B9,0.36,0.000149,415000
B10,0.433,0.000164,379000
B11,0.289,0.000121,420000
B12,0.464,0.000171,369000
B13,0.297,0.000219,737000
B14,0.229,0.000165,718000
B15,0.423,0.000231,546000
